# Data: paper doi:10.1101/2025.08.04.668567 (bioRxiv, 2025)
# B1: Rice OsPHT1;11 (OsPT11) (natural protein)
# chain: MADADGGSNLAVLDALDSARTQMYHMKAIVIAGMGFFTDAYDLFCISTVSKLLGRLYYQPDGSTDSKPGALSKTANNMVIGVALVGTLMGQLVFGYFGDKLGRKRVYGVTLILMAACAIGSGLSFGSSRKAVIGTLCFFRFWLGFGIGGDYPLSATIMSEYSNKKTRGAFIAAVFAMQGVGIIFAGLVSMIVSSIFLTYNKAPSYKGNHDLSRQMPAADYVWRIVLMIGAFPALATFYWRMKMPETARYTAIIDGNAKQAANDMQKVLSIEIEAEQEKLAKFNAANNYPLLSMEFARRHGLHLIGTTTTWFLLDIAFYSQNLTQKDIFPAMGLISGAAEVNALTEMFQISKASFLVALLGTFPGYWVTVALIDKMGRYMIQLIGFFMMSMFMLAMGILYDYLKTHHFLFGLLYALTFFFANFGPNSTTFVLPAELFPTRVRSTCHAISAAAGKAGAIVAAFGIQKLTYNSQVKSIKKALIILSITNMLGFFFTFLVPETMGRSLEEISGEDGNTGAGGGGAPAAANAGVGVSASDVSRDEKFPASSTEWQTSMHA
# Molecular target: the molecule itself
# Assay: cryo-EM structure
protein,measurement,value
B1,stoichiometry N,2
